According to patent publication US20070166286:

Assays:
Assay in all cases: cell_activity
FLPe (thermostable FLP) = conditions: substrate plasmid ad2879, 293 cells
FLP recombinase = conditions: substrate plasmid ad2879, 293 cells; 4.9 in Table 2 with vector control
[1] = tested on: Cre recombinase (bacteriophage P1); conditions: Ad2HCRGFP/EBV in HepG2, 72 h post infection, moi 1000
[2] = tested on: LBD-Cre-LBD (bacteriophage P1); conditions: type B provirus pk8-ad4626, +tamoxifen; 0.05 without
[3] = tested on: Cre-LBD (bacteriophage P1); conditions: type B provirus pk8-ad4332, +tamoxifen; 4.1 without

| Substance | activity (mean GFP intensity) (FLPe (thermostable FLP)) | activity (mean GFP intensity) (FLP recombinase) | activity (% genomes circularized (or more)) [1] | activity (arbitrary GFP intensity) [2] | activity (arbitrary GFP intensity) [3] |
| --- | --- | --- | --- | --- | --- |
| FRT site | 2.39 | 0.01 |  |  |  |
| loxP site |  |  | 95 | 4.2 | 6 |
